Assay results as given in the supplement of paper PMC10065799, “High-throughput profiling of sequence recognition by tyrosine kinases and SH2 domains using bacterial peptide display” (eLife, 2023).

Target: c-Src SH2
Assay: SH2 binding enrichment of the phosphorylated peptide, bacterial display (enrichment ratio); higher = better substrate or ligand; peptides without Tyr show the background
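Throughout, for SH2 binding enrichment of the phosphorylated peptide, bacterial display: peptide library displayed on the E. coli surface as eCPX fusions, selected cells deep-sequenced, score is each peptide's frequency after selection divided by its frequency in the input.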
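Throughout, for phosphorylation enrichment, bacterial display: 11-residue human phosphosite peptides and single-mutation variants displayed on the E. coli surface, counted by deep sequencing, each peptide's frequency after selection divided by its frequency in the unselected input library; frequency after pTyr selection over input frequency; kinase dosed for 20-30% of maximal phosphorylation in three min.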

Sequence | SH2 binding enrichment
VIKDKYPKVRY [APTX_Y209_A212V] | 1.05
CPPEVYAIMRG [NTRK1_Y757] | 0.814
GLRQSYFVEAQ [APCS_Y142_G141S] | 0.681
YPKARYHWLVL [APTX_Y214] | 1.2
LVFIKYLPEWT [PSEN1_Y240] | 0.902
PESIMYPKFTT [NTRK3_Y744_R745P] | 0.596
DASENYFVTDS [TMEM240_Y77] | 0.576
VVLEDYLDIKH [CLCNKB_Y138_N143H] | 0.54
SLTGAYTSGIP [POM121C_Y378] | 0.448
LKRCQYVTKKV [ALDOA_Y204_E207K] | 0.788
LEQRPYRRESE [KCNJ12_Y427] | 0.267
AGEGTYALDSE [PES1_Y265] | 0.617
QITQVYGFFDE [PPP2CA_Y127_YF] | 0.726
KRIKLYNQEND [RPGRIP1L_Y448] | 0.489
LLPNAYIYVVQ [L1CAM_Y418_A415P] | 0.432
DRVALYVAREG [AACS_Y117_I118V] | 0.425
FDDIAYIRKTL [PIK3CA_Y1021] | 0.483
NNVEQYQAMVT [TPR_Y965_S960N] | 0.754
PSQRPYVFFFS [PTEN_Y174_R173P_YF] | 1.42
CTAIHYNYMCN [TP53_Y234_T231A] | 6.38
QLPATCMNLGP [MST1R_Y1360_Y1360C] | 0.539
EVNQDYGLDPK [FH_Y110] | 0.508
AIFRRYSKFFD [SH3PXD2B_Y45_YF] | 0.475
WAKPEYTGGFK | 0.478
EYITRYIASLK [PSMA7_Y110] | 0.57
EKGSNYCLCRT [ASIC2_Y357_D354G] | 0.645
RLLVVYPWPQR [HBG2_Y36_T39P] | 1.46
AAESTYDKILK [GDNF_Y156_T154S] | 5.23
RRGMPYGGRGD [TGM1_Y312] | 0.384

Target: Grb2 SH2 (UniProt P62993)
Assay: as above

Chain of Grb2 SH2 (P62993 whole entry, looked up): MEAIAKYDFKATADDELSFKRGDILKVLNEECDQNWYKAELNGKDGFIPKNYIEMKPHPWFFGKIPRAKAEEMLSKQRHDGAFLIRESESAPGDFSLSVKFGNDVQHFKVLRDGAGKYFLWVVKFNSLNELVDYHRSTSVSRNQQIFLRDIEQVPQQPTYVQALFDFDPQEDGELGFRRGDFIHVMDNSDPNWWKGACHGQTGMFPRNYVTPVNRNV

Sequence | SH2 binding enrichment
VIKDKYPKVRY [APTX_Y209_A212V] | 1.19
CPPEVYAIMRG [NTRK1_Y757] | 1.3
GLRQSYFVEAQ [APCS_Y142_G141S] | 0.686
YPKARYHWLVL [APTX_Y214] | 1.54
LVFIKYLPEWT [PSEN1_Y240] | 1.6
PESIMYPKFTT [NTRK3_Y744_R745P] | 0.748
DASENYFVTDS [TMEM240_Y77] | 0.977
VVLEDYLDIKH [CLCNKB_Y138_N143H] | 0.76
SLTGAYTSGIP [POM121C_Y378] | 0.828
LKRCQYVTKKV [ALDOA_Y204_E207K] | 0.946
LEQRPYRRESE [KCNJ12_Y427] | 0.621
AGEGTYALDSE [PES1_Y265] | 0.928
QITQVYGFFDE [PPP2CA_Y127_YF] | 0.898
KRIKLYNQEND [RPGRIP1L_Y448] | 0.856
LLPNAYIYVVQ [L1CAM_Y418_A415P] | 0.683
DRVALYVAREG [AACS_Y117_I118V] | 0.825
FDDIAYIRKTL [PIK3CA_Y1021] | 0.683
NNVEQYQAMVT [TPR_Y965_S960N] | 0.67
PSQRPYVFFFS [PTEN_Y174_R173P_YF] | 1.53
CTAIHYNYMCN [TP53_Y234_T231A] | 1.3
QLPATCMNLGP [MST1R_Y1360_Y1360C] | 0.822
EVNQDYGLDPK [FH_Y110] | 0.807
AIFRRYSKFFD [SH3PXD2B_Y45_YF] | 0.56
WAKPEYTGGFK | 0.971
EYITRYIASLK [PSMA7_Y110] | 1.05
EKGSNYCLCRT [ASIC2_Y357_D354G] | 0.947
RLLVVYPWPQR [HBG2_Y36_T39P] | 1.8
AAESTYDKILK [GDNF_Y156_T154S] | 1.08
RRGMPYGGRGD [TGM1_Y312] | 0.538

Target: SHP2-C SH2
Assay: as above

Sequence | SH2 binding enrichment
VIKDKYPKVRY [APTX_Y209_A212V] | 1.16
CPPEVYAIMRG [NTRK1_Y757] | 0.9
GLRQSYFVEAQ [APCS_Y142_G141S] | 0.726
YPKARYHWLVL [APTX_Y214] | 1.46
LVFIKYLPEWT [PSEN1_Y240] | 1.43
PESIMYPKFTT [NTRK3_Y744_R745P] | 0.594
DASENYFVTDS [TMEM240_Y77] | 0.759
VVLEDYLDIKH [CLCNKB_Y138_N143H] | 0.575
SLTGAYTSGIP [POM121C_Y378] | 0.718
LKRCQYVTKKV [ALDOA_Y204_E207K] | 1.02
LEQRPYRRESE [KCNJ12_Y427] | 0.945
AGEGTYALDSE [PES1_Y265] | 0.435
QITQVYGFFDE [PPP2CA_Y127_YF] | 0.841
KRIKLYNQEND [RPGRIP1L_Y448] | 0.673
LLPNAYIYVVQ [L1CAM_Y418_A415P] | 0.707
DRVALYVAREG [AACS_Y117_I118V] | 0.644
FDDIAYIRKTL [PIK3CA_Y1021] | 0.565
NNVEQYQAMVT [TPR_Y965_S960N] | 0.765
PSQRPYVFFFS [PTEN_Y174_R173P_YF] | 1.3
CTAIHYNYMCN [TP53_Y234_T231A] | 2.87
QLPATCMNLGP [MST1R_Y1360_Y1360C] | 0.439
EVNQDYGLDPK [FH_Y110] | 0.581
AIFRRYSKFFD [SH3PXD2B_Y45_YF] | 0.572
WAKPEYTGGFK | 0.758
EYITRYIASLK [PSMA7_Y110] | 1.46
EKGSNYCLCRT [ASIC2_Y357_D354G] | 0.806
RLLVVYPWPQR [HBG2_Y36_T39P] | 1.67
AAESTYDKILK [GDNF_Y156_T154S] | 0.672
RRGMPYGGRGD [TGM1_Y312] | 0.526

Target: Jak2 (UniProt O60674)
Assay: phosphorylation enrichment, bacterial display (enrichment ratio); higher = better substrate or ligand; peptides without Tyr show the background

Chain of Jak2 (O60674 whole entry, looked up): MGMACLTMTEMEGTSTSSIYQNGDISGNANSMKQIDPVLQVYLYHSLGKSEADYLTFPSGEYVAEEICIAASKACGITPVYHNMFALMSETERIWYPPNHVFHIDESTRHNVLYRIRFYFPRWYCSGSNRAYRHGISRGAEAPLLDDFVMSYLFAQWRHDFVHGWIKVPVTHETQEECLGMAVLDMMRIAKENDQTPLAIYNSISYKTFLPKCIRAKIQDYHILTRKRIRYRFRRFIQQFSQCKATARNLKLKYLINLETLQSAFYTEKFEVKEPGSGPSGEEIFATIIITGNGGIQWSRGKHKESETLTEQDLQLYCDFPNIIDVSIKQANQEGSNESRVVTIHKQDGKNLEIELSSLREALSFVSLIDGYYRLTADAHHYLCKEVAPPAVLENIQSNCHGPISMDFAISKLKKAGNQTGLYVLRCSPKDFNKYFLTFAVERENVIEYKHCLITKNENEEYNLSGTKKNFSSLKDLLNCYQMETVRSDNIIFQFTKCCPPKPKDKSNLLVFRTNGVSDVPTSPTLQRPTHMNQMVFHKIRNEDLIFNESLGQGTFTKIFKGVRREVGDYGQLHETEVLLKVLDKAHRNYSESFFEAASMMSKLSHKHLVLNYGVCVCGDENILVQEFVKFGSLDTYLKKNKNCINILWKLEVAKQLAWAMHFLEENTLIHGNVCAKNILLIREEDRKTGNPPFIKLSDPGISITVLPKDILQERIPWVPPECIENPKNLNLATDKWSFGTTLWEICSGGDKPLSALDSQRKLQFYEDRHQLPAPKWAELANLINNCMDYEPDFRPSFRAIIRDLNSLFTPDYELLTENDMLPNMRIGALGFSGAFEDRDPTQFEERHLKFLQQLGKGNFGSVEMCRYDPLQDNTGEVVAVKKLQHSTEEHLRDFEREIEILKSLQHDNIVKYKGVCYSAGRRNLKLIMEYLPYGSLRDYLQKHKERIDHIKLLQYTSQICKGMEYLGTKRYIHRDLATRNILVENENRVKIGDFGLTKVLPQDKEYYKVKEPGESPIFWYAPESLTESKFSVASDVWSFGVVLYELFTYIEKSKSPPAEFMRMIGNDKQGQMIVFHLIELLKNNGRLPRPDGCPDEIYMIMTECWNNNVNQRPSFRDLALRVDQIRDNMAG

Sequence | phosphorylation enrichment
VIKDKYPKVRY [APTX_Y209_A212V] | 0.693
CPPEVYAIMRG [NTRK1_Y757] | 0.87
GLRQSYFVEAQ [APCS_Y142_G141S] | 0.596
YPKARYHWLVL [APTX_Y214] | 0.941
LVFIKYLPEWT [PSEN1_Y240] | 1.97
PESIMYPKFTT [NTRK3_Y744_R745P] | 0.717
DASENYFVTDS [TMEM240_Y77] | 1.37
VVLEDYLDIKH [CLCNKB_Y138_N143H] | 0.959
SLTGAYTSGIP [POM121C_Y378] | 0.44
LKRCQYVTKKV [ALDOA_Y204_E207K] | 0.752
LEQRPYRRESE [KCNJ12_Y427] | 0.461
AGEGTYALDSE [PES1_Y265] | 0.878
QITQVYGFFDE [PPP2CA_Y127_YF] | 1.33
KRIKLYNQEND [RPGRIP1L_Y448] | 0.502
LLPNAYIYVVQ [L1CAM_Y418_A415P] | 1.69
DRVALYVAREG [AACS_Y117_I118V] | 0.823
FDDIAYIRKTL [PIK3CA_Y1021] | 0.835
NNVEQYQAMVT [TPR_Y965_S960N] | 0.779
PSQRPYVFFFS [PTEN_Y174_R173P_YF] | 1.21
CTAIHYNYMCN [TP53_Y234_T231A] | 0.569
QLPATCMNLGP [MST1R_Y1360_Y1360C] | 1.14
EVNQDYGLDPK [FH_Y110] | 1.17
AIFRRYSKFFD [SH3PXD2B_Y45_YF] | 1.04
WAKPEYTGGFK | 0.574
EYITRYIASLK [PSMA7_Y110] | 0.526
EKGSNYCLCRT [ASIC2_Y357_D354G] | 0.572
RLLVVYPWPQR [HBG2_Y36_T39P] | 0.617
AAESTYDKILK [GDNF_Y156_T154S] | 0.682
RRGMPYGGRGD [TGM1_Y312] | 0.686
